This is an account of results in publication doi:10.1101/2020.02.27.968578.

In data set [1] the target is CFP (UniProt P42212). The data set is described as follows: cited. The note with it: PBS, 5 mM MgCl2, pH 7.4, room temperature, 5 min; 50 nM GFP, excitation 480 nm; cited from earlier work.
Data set [2] concerns the target YFP (UniProt P42212). The data set is described as follows: cited. The note with it: PBS, 5 mM MgCl2, pH 7.4, room temperature, 5 min; 50 nM GFP, excitation 480 nm; cited from earlier work.
Data set [3] has as its target EGFP (UniProt P42212). Nature of the data set: cited. The following applies: PBS, 5 mM MgCl2, pH 7.4, room temperature, 5 min; 50 nM GFP, excitation 480 nm; cited from earlier work.
Data set [4] addresses EGFP (UniProt P42212). Nature of the data set: GFP fluorescence quenching titration. The note with it: PBS, 5 mM MgCl2, pH 7.4, room temperature, 5 min; 50 nM GFP, excitation 480 nm.

Consider “GGGAGCUUCUGGACUGCGAUGGGAGCACGAAACGUCGUGGCGCAAUUGGGUGGGGAAAGUCCUUAAAAGAGGGCCACCACAGAAGC [AP3 (GFP aptamer)]”, for which the Kd is 10 nM in data set [1], 10 nM in data set [2], 4 nM in data set [3] and 4 nM in data set [4].

In general, Kd refers to the free concentration of one partner at which half of the binding sites on the other are occupied at equilibrium, for simple one-to-one binding.
